# Experimental data as given in IntAct's records for PubMed 34502139.
# B1: Mitochondrial import receptor subunit TOM70 (Homo sapiens), O94826 (parent)
# chain: MAASKPVEAAVVAAAVPSSGSGVGGGGTAGPGTGGLPRWQLALAVGAPLLLGAGAIYLWSRQQRRREARGRGDASGLKRNSERKTPEGRASPAPGSGHPEGPGAHLDMNSLDRAQAAKNKGNKYFKAGKYEQAIQCYTEAISLCPTEKNVDLSTFYQNRAAAFEQLQKWKEVAQDCTKAVELNPKYVKALFRRAKAHEKLDNKKECLEDVTAVCILEGFQNQQSMLLADKVLKLLGKEKAKEKYKNREPLMPSPQFIKSYFSSFTDDIISQPMLKGEKSDEDKDKEGEALEVKENSGYLKAKQYMEEENYDKIISECSKEIDAEGKYMAEALLLRATFYLLIGNANAAKPDLDKVISLKEANVKLRANALIKRGSMYMQQQQPLLSTQDFNMAADIDPQNADVYHHRGQLKILLDQVEEAVADFDECIRLRPESALAQAQKCFALYRQAYTGNNSSQIQAAMKGFEEVIKKFPRCAEGYALYAQALTDQQQFGKADEMYDKCIDLEPDNATTYVHKGLLQLQWKQDLDRGLELISKAIEIDNKCDFAYETMGTIEVQRGNMEKAIDMFNKAINLAKSEMEMAHLYSLCDAAHAQTEVAKKYGLKPPTL
# B2: Mitochondrial import receptor subunit TOM70 (Homo sapiens), O94826 (parent)
# chain: B1 chain
# partner: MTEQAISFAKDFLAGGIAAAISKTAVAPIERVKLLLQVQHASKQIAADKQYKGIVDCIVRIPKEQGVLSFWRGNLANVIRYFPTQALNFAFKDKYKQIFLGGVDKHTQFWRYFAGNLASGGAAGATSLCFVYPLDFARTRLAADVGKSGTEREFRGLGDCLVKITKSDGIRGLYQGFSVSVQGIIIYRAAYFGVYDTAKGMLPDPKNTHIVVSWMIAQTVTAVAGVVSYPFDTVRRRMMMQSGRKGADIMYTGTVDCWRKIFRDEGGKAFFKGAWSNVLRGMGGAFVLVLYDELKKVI
# Variants of: B1
# Conditions: with hs90b_human HSP90AB1, P08238
# Chain of hs90b_human HSP90AB1, P08238 (P08238 whole entry): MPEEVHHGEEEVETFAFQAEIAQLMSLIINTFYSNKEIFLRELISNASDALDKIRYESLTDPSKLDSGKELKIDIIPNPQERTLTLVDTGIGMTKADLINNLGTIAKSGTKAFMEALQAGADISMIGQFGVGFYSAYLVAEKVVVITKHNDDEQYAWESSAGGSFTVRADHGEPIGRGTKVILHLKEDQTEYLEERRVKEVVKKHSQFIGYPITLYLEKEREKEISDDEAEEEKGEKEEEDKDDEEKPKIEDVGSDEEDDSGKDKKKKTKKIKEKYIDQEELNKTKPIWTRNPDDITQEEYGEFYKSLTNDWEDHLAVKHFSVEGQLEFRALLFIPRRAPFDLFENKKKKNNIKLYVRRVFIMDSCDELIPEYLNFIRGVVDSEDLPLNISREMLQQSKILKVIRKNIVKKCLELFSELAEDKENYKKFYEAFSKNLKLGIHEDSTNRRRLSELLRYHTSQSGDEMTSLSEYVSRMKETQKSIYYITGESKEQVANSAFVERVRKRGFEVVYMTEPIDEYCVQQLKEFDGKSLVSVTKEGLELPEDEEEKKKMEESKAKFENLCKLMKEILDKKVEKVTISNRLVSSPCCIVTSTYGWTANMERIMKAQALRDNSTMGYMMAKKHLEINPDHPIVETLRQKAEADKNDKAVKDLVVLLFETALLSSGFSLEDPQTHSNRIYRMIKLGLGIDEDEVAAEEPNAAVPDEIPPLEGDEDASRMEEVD
row,Variant,effect of a mutation on the interaction
1,R192A,decreasing interaction strength
2,E477A,decreasing interaction strength

# Variants of: B2
# Conditions: with adt3_human SLC25A6, P12236
row,Variant,effect of a mutation on the interaction
1,E477A,decreasing interaction strength
